Data: the domain aggregation screens of Martell et al. (2025)

Assay: soluble fraction after stress (log2 fold change); higher = more stays soluble; pooled small domains, quantitative proteomics
Details: stress: pH 4
Outline: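 Aggregation propensity is read out as the fold change in how much of each domain remains soluble after acid stress. The custom small-domain libraries were pooled, held at pH 4 and analysed with high-throughput quantitative proteomics. On the log2 scale used, higher values mean more of the domain stayed soluble.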

Compared with “HMKDYQGEISVVASGERIDVYLFNYFNLFSRTKIKNHIKNGNILVNENIISPSYILKQNDKIAFNLGAPY”, “HMKDYQGNILIQSEGDRIDKFLFKYFNSFSRTKIKNHIINGNILVNDKNTIPAYVLKINDKISYDLSTSVK” is higher in “soluble fraction (log2)” value: -2.12 for the first, -0.877 for the second.

Compared with “HMKEAITVIGGKNNITFDASAQAEIGIYSMDGVQIQKKTISDNERIDLPAGMYVVTVKTGQANVSKVVVV”, “HMKEDSTIIERIISNLSSASLKTQKAFEYKLTDLMFRFSEGEYEWSSAMEVIREELLPFLNK” is lower in “soluble fraction (log2)” value: -0.145 for the first, -0.645 for the second.

“HMKEETEMVTIPDVTGKPLTEAANLLREAKLDYLAESTGTSVTKQMPLPGAEVMVNTTVLLYTG” and “HMKEEVMVPNVVGKELSAALLEMQVKELYPKLQLKYSNFVDDKGTVLEQSPPAGSIVKAGRRINLVVSRGA” are within 0.2 log units of each other in “soluble fraction (log2)” value: 0.241 for the first, 0.0708 for the second.

“HMKEIKAPNKINAHLIEEWRSQHPTELFPEEKVDLIYYKGEEYYFVIEEKNELGEIEEWYFAYDGGIDYV” and “HMKEILTNESIIQFVKDKVSEEQIIYKINNSPIDFKLDVNSMVSLAKQNVSSTIIIAMENAMNN” are within 0.2 log units of each other in “soluble fraction (log2)” value: -0.373 for the first, -0.522 for the second.

“HMKELLQEMIMDILRAIASPNIDIKRKTLDLVLDLITPRNIDNVTGMLKTEVVKSQSENTSDVG” and “HMKELTYSDFRKAYPDIQGNLFGMAERYITALDWTEVAAKVETDEELRKERDIFYLVKTYIRKYVQ” are within 0.2 log units of each other in “soluble fraction (log2)” value: -0.572 for the first, -0.695 for the second.

Going from “HMKELVAGQTVRVHHSIGFGQTGTVTALNSLKTTLPNGLRTNTASILFQNNEKVVLPISNFDIIES” to “HMKELVEDFASRISNARQSKGWNQSELAKRMAETVNVVKSAESGKSPTDSVIKKLERVLGIILM”, the “soluble fraction (log2)” value falls from 0.403 to 0.0723.

Going from “HMKEQLITVYVSGAVARPGLYELPAGIRAQEAVEAAGGFTEAANHEKVNLAKKLKDGSQVNVPALK” to “HMKEQYDLNDREQQFISLVANGLNNKEIAETLFLSEGTVRNYLSNLLDKLGLRDRTQLAIFFYQHL”, the “soluble fraction (log2)” value falls from -0.107 to -1.74.

“HMKERLLDPYKDFIVNYLQKYPYTPAAVMHDKLKESYPDFPKVDPKTIYNFVMLLRRDFNIPKV” and “HMKETERKILQAVLGLPLKYRDVIHLFYYEEMSVKEIAEVLHRQESTVTSQLTRARGILKKNL” are within 0.2 log units of each other in “soluble fraction (log2)” value: -0.406 for the first, -0.377 for the second.

Compared with “HMKETLSDTVSRKLEDMITTQMKAGNRLPTEMVLAEMYSVGRSTIRESLKALSSKGLIVRKKDGTFVSDRV”, “HMKEVKAPMPGMVLRVEVAPGQEVQEGDPLLVLEAMKMENNLKSPASGTIKSVHVEAGKAVEKGAVLVVF” is lower in “soluble fraction (log2)” value: 0.22 for the first, -0.257 for the second.

“HMKEVKRDQVIEAARKLFHQFGFKKVSMDEIAKEAGVTKKTIYMYFESKEELLKYFIQEEISN” and “HMKEVVKVTITPSEKLKSQYPDALVSIDGKFYDLGILNNPVEFYMDKDHKISIIWSTAELVESFRI” are within 0.2 log units of each other in “soluble fraction (log2)” value: -0.44 for the first, -0.248 for the second.

“HMKEYRKEGHLYFVTEDRNNEIYLWDFTDKPKHEFKEIITSVELQKVAKEGAMLQYKNGKYELYS” and “HMKFDVNAAIRAVLNVTVDKGATLERIMKETNLTSDQLVLPIALLMKTERLHFKRSGTHEVYVSVGKAPDK” are within 0.2 log units of each other in “soluble fraction (log2)” value: -0.0848 for the first, -0.0868 for the second.

“HMKFGEQIKERRQELDLTQAEVAEKLFVTRQAVSNWEHNKTYPDLNMLVKISNVYQISLDSLLR” and “HMKFHENLIALRRREGWSQEELGNRIGVTRQTVSKWELGLTTPELEKLVQLADVFGMTTDQLVGR” are within 0.2 log units of each other in “soluble fraction (log2)” value: -0.0339 for the first, -0.111 for the second.

Compared with “HMKFNLWLSEKLKKLGLTQRKLAEQAGVSPATVSRWLSGEFEPDLTNLRKINQVLGVPERELFLQLGL”, “HMKFPNVGENLRLLRQEMGISLDKASKMTGVSKAMLGQIERGESSPTVSTLWKISSGFKINFTTLLSE” is higher in “soluble fraction (log2)” value: -0.0282 for the first, 0.224 for the second.

Compared with “HMKFPPASDIRRMRKAIDVTQTELAKQSGVSQSTIAKIERGRISASYDTVVKLFETLDEMAK”, “HMKFTPPTLEQIKNEMLLKTDEYNADIQSDRFFTYYDSNGWMVGKNKMKKFLVSLVAVFAATSA” is lower in “soluble fraction (log2)” value: -0.00924 for the first, -0.374 for the second.

First: HMKFYIHEIIGFNAVDKVAGIVGKVININEDSPQKKLVVNYNGKEVFIPLVDEIVRKIDKQKNEVLITMP
Second: HMKGEIEELLYEEVTKDNNTTFLRIYIKLNDEYNTLLNLGIIGIKTEEKVNELVNLGYKKVL
The “soluble fraction (log2)” value of the first is higher: -0.174 for the first, -2.54 for the second.

First: HMKGISRVTMELIIDALKKETEPRTVQWIAEKTGLATQTTYRYLQYMVSEQTVEALNVYGKVVSLKAK
Second: HMKGKWKPIILWQLSKAPQSLSGLRHSIAGISQKMLIQHLNELIHFGFVVRTTFEGYPLKVEYDLTDRGR
The “soluble fraction (log2)” value of the first is higher: 0.153 for the first, -0.251 for the second.

Compared with “HMKGLDAAVVDLFKSKGASIVFAGNRLSLSGEVADQATKDELLAKAKAILASLGASVSLDDKLMVKGAKAS”, “HMKGMIKVASMSLGADLGLYSRHLKYLGIVHRVVEESGGQSVYIQKLNDLHTAKESLELYLKNELKI” is lower in “soluble fraction (log2)” value: 0.175 for the first, -0.476 for the second.

Compared with “HMKGQNRSEITAGARVKVVQKQDQRTGALTEGIVRDILTRSPHHPHGIKVRLESGIVGRVKDVL”, “HMKGSIMIETILKELKKNNKGFNFLLEKFDISEDELMKIINDLIHDKKVFLNSNNKYEIVSD” is lower in “soluble fraction (log2)” value: -0.287 for the first, -0.958 for the second.

Compared with “HMKGTVLAPGIILNADDQRFTYLQEDVASVAKDGAAIVLKQGDEVDFIADGQTAKQIYLTKT”, “HMKGVPGIGDYVKLSGGSTVGKVLSISGKKAEVAFGLLRTTTELSKLEKVRKPKELLQSGVSS” is higher in “soluble fraction (log2)” value: 0.0738 for the first, ≥ 0.43 for the second.

“HMKGVTVDGDNITVDGEKQTLISVNKNLDGDVVSYTYRTADGKLRTSRNVEVAQEINKQQLLKSIDAQ” and “HMKGWPDREQAEKIWQQGIDYAIEHHTMSPQIVKEYIFHTQGIARSAALIAARLPDMDTEKAYVLGLLHD” are within 0.2 log units of each other in “soluble fraction (log2)” value: 0.0219 for the first, 0.0199 for the second.

“HMKIAEALNLRGDADSYERQEAIWLLEHIVGMSALELKYRGEQDLTEDQLQQYRSGLQRLEQGEPLAYVIG” and “HMKIDLKQIEGVLDELAKVKGSLITILQKTQETYGYLPKEAIIYISERTGIAESEIMGVATFYTQFRL” are within 0.2 log units of each other in “soluble fraction (log2)” value: -0.73 for the first, -0.779 for the second.

First: HMKIDLTPQEEKIYSVLETELTLDEIIMKTSIKAGEALAILMDLELKKLVASVAGGKYRRKA
Second: HMKIEETLGKTAQVYIPIPQYLSGIGKVTLSVRGSLRELDAMTEEEKIPSNTIVRIVKVQDQVLFVKRA
The “soluble fraction (log2)” value of the first is higher: 0.157 for the first, -0.0641 for the second.

Going from “HMKIHNSIREITDFDRKQNSNIPSDAKYRIVFYTPQGNKTIIPEELQGLQYYRSKELAEIALNKKLNSN” to “HMKILKQLEAIIEKEGLNESAKQFYLREISELDKEKQQEIINLVDKMEQAGFKNNLASAFSEVTEDIPQF”, the “soluble fraction (log2)” value falls from 0.0952 to -0.518.

Compared with “HMKILNYQSLVGKKGITKSMLRPAGIVEIEGRRYDVVTRGEFIEPGKMITVDEVQGNRIIVQIERE”, “HMKIPIIYQPLKNAKRIKIYIPYELKELRTIFKKINTTFWHPNQKLWSIIYTQENVALIKNLFGKNYKIVN” is lower in “soluble fraction (log2)” value: 0.189 for the first, -0.0514 for the second.

“HMKIQEVDYSTFLNMLNEKSIAQVEIQDNQIAFNSNQEGNKQIYVTGRIEEDTELVNRLQAAGVQFSRV” and “HMKIRIIKTASNAKAVQIVSYKNNKRIVLQHIGSAHTDETLNDLKILAEEWIKDYNHQLSIF” are within 0.2 log units of each other in “soluble fraction (log2)” value: -0.638 for the first, -0.671 for the second.

Going from “HMKISDLPAAQVYREIVHAWPKAAAYADLAPINNGGMQRWRDVVHEWVLRGYNPANLRGMLEWYKAGIPTR” to “HMKISDMIETNLKFLRGKHSISQAELAESLGIPRTTLSAYERGFVEPNIELMLKMAKYFNVSLDDLIAYN”, the “soluble fraction (log2)” value falls from -0.132 to -1.3.

“HMKISQSRKAGKLVLESELKRGGVSLDQYRGGRMSRILELIGVKSLNELLTDLGTGKKTGALVAERFFSGL” and “HMKITFNPVSSGRLDIILAEKTGYTRSYVKQLVEKQAVTINGEAAKKSGQNVKAGDEIALDEP” are within 0.2 log units of each other in “soluble fraction (log2)” value: -0.036 for the first, 0.149 for the second.

Going from “HMKITIDSVERDETFRLIWGTGWKPKNKIQELAAIQAKKNGLGRMNEVAGLAAWRGIWQQVAEQVAQEVL” to “HMKITKIWFTADHIFGRDEEGKEYSQSLLWYPKLSAASDEERSQYTFGYDGIHWRSLDEDISFESF”, the “soluble fraction (log2)” value falls from -0.843 to -1.52.

Compared with “HMKIVFGHVKWFDIDKGFGFLVLEDEGGDVLLHANVLKNFGRTSVSEDTKIEFEFLETDKGRQVSTIYNIL”, “HMKIVQDIAFSDFLNEVEKDNVLDVNIKGDLINGNLADGRKFKTYTPYDPNLIEKLSNKNVTINVEPYN” is higher in “soluble fraction (log2)” value: -2.19 for the first, 0.00986 for the second.

“HMKKAENEKLNIPYDVTEFLASSIKDDIRMMEGAMVKLLALSSLTKQDITQSLAKRVIQDVLGSSA” and “HMKKAMIISTKRGTPAAELDKIIREFEAKGLSVTMIRGTDYNVFGLVGDTTVIDEKQVRANPYVENVQRV” are within 0.2 log units of each other in “soluble fraction (log2)” value: -0.451 for the first, -0.325 for the second.

First: HMKKATYDVMVREALVSFKKKGATLQSIKKKIKADYAIEANATAVKSAIQKGMEAGSIRKSYDLYFFMD
Second: HMKKDDLKQINGIGTTIEKKLNEIDIYNFYQISNLSKEDIETISEKIKTFPGKIERDNWVGQAQELL
The “soluble fraction (log2)” value of the first is higher: 0.15 for the first, -0.844 for the second.

Going from “HMKKIFIDAPLDTMITIPKDTTHHLLTVFRHKMEKPVLVGGSDGRTGVYQIQDVVDGEASAKLVGDIQ” to “HMKKISAKQQQILDYISSYSLEHGYPPSVREIGAEMGLRSPSTVHAHLKKLQEAGYLEPNEHKSRALTP”, the “soluble fraction (log2)” value falls from 0.318 to -0.0896.

“HMKKITTANPLDINRATLAQLDTLPGIGPVTAERIIAYRSKVGRINSLDELKKISGLGGMKFEEIKPLLRV” and “HMKKKLPRYLQEQKYGNGMVFYRYNPTARYIDEGIVTRTNLGSDLSIAKKKANEFNKLIDAFLQQQSE” are within 0.2 log units of each other in “soluble fraction (log2)” value: -0.126 for the first, -0.0245 for the second.

Compared with “HMKKMSFKEAFLKYVEIKDNPYNMESVKMLVSLQPLIVKAYSILGVDKVRRLNYVKTKIQDAIINGD”, “HMKKNLELGLLPHEVKSILGEPDFIDTITDIDGIRYDMWSYTKLNVTKRLYFEDLFLVRMEE” is lower in “soluble fraction (log2)” value: 0.0648 for the first, -1.42 for the second.

First: HMKKNNTTPIPKTLNYVNIKGLSNEAVERLNKHKPSTLGQASRLEGITPAATSLISIAIKKNQLLEKAES
Second: HMKKPAERRKELVDAAAHLFAEKGYENTSVRDILDAVGGAPGMFYYYFKSKQDIYVAVMEDF
The “soluble fraction (log2)” value of the first is higher: 0.123 for the first, -1.1 for the second.

Going from “HMKKPANLISEDRMVEVLYDVIIINTAKGVNKQLLQNNINNPLNYIYRSHGIDSLQFAESNAYYTS” to “HMKKSGFFSAGDRIQLTDNKGRQYSFNITEGKEFHTHQGFIKHDDLIGMPEGSVVSINSTTGVVQKFMAF”, the “soluble fraction (log2)” value rises from -0.798 to -0.584.

Going from “HMKKSIRIFELMKAKVAAEIFDQMILEGKIEDVFDIIVRLKDSNVSNIMKTMSVENSSRLVQKLERYNKD” to “HMKKVRIPDDPEEAYRKALKTAMNIVGYKDNTEFTLREKLSERGYSGETVDAVAEFMKSKGYV”, the “soluble fraction (log2)” value rises from -0.626 to 0.00228.

Going from “HMKKVTMQDIANILNISRVTVWKVLNNQPGVSKQLRDQILLTAKETGYLKPGQEAEAYLEENNIYFEG” to “HMKKYDIKEAQEIAEINRIPGLVTTSHGRRVYFDPKIMQYVSEEQIVKKYGQKTVKMLDQWYVSNILNK”, the “soluble fraction (log2)” value rises from -0.344 to 0.419.
